Source: a protein production outcome set (Wang et al. 2014)

Test: label from the status in PepcDB records
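Further: failed if final PepcDB status was selected cloned or expressed and not failed if soluble or beyond.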

Row | Sequence | protein production
1 | MAKGSAKKSFLDLFKITDSNDDDFDDDMFDDEDEMEDEYDDPYDEAYDSEEEYDDGSDAASDRAKASPLKSFNKYKNSRTPSGNVSKTKTAKSSQNSKLVSINSRSDRDSYDDSEVFVIKPDEFDDAQMIIDHLNRGQIIVINMEDLDLPTAQRIADFIGGASYAVNGLFQAISGNIFLATPNGTYVSGDLREELAGGSLGGEDLSKATY | failed
2 | MAKIFVVGGSGRVASELIKNLINDGNQVFASSRHPEKIIKLDNVVPVKLDLHSDVSAWSEVFKGMDVIYFVAGSRGKDLLQTDAMGAVKTMQAAENVGVKRYIMLSSLYALQPEKWSQYESLAALTDYNIAKFFADNYLVNDTKLDYTVVQPASLTEETGTGRVSFNEIISNTNPIPDVAKVLAEVIKHNNTIGKVIMMCSGDNPIETALKDI | failed
3 | MAKIKVMSIFGTRPEAIKMAPLVLALEKEPETFESTVVITAQHREMLDQVLEIFDIKPDIDLDIMKKGQTLAEITSRVMNGINEVIAAENPDIVLVHGDTTTSFAAGLATFYQQKMLGHVEAGLRTWNKYSPFPEEMNRQLTGVMADIHFSPTKQAKENLLAEGKDPATIFVTGNTAIDALKTTVQKDYHHPILENLGDNRLILMTAHRRENLGEPMQGMFEAVREIVESREDTELVYPMHLNPAVREKAMAILGGHERIHLIEPLDAIDFHNFLRKSYLVFTDSGGVQEEAPGMGVPVLVLRDTTERPEGIEAGTLKLIGTNKENLIKEALDLLDNKESHDKMAQAANPYGDGFAANRILAAIKSHFEETDRPEDFIV | not failed
4 | MAKKKNVSVISVEKPTWFPLTDETGAFPVYGAPITIGTAVSIKPDVTTETTPDYGDSVVQDQYVAFGGAEVTLETNGYQNEVLAEITGGKKLKGGVLRSADDIASDGAFAYRRRKSNGKYRYTIFYKGKFALTSDETSTLEGSSVSYTHPEWTGSFVDVPGLGYMYSVDEDDEGVDLEMIKNWFTEVMDPRKENTTAVTGVTLDQTELNLKVGQTATLTPTITPDNASNKKYQFRSESEAIGTVTPIQGKVTAVGEGTTEIVVTTEDGNFTAKCTLNVTTADLEHHHHHH | failed
5 | MAKKNKRSQQKNKCLKPEKDPSTVKRLLEDPPRKKRYLQPLENPPTESYGDDEKMETEEEGEKYLGKNLPASAFIIVAAERHDSDSYSETELEKKICGSVVVAKMNDDKMVSTDTKKKYFQRILSDDDKIVLLQGMVDFQNDKGTISYDDMTGFIDTVKNIISFQANSRQFTTKIRRLKDKFVQKRNKGVDENSLANVEIYEI | failed
6 | MAKKTSSKWYSTSAFSRLEKLGLRHPKPSPFIGNLTFFRQGFWESQMELRKLYGPLCGYYLGRRMFIVISEPDMIKQVLVENFSNFTNRMASGLEFKSVADSVLFLRDKRWEEVRGALMSAFSPEKLNEMVPLISQACDLLLAHLKRYAESGDAFDIQRCYCNYTTDVVASVAFGTPVDSWQAPEDPFVKHCKRFFENVELLGTPWLQVYNNFPALLDARILPNKNRDELNGFFNKLIRNVIALRDQQAAEERRRDFLQMVLDARHSASPMGVQDFDIVRDVFSSTGCKPNPSRQHQPSPMARPLTVDEIVGQAFIFLIAGYEIITNTLSFATYLLATNPDCQEKLLREVDVFKEKHMAPEFCSLEEGLPYLDMVIAETLRMYPPAFRFTREAAQDCEVLGQRIPAGAVLEMAVGALHHDPEHWPSPETFNPERFTAEARQQHRPFTYLPFGAGPRSCLGVRLGLLEVKLTLLHVLHKFRFQACPETQVPLQLESKSALGPKNGVYIKIVSRHHHH | failed
7 | MAKLVSIIVSVYNKEQFLEKCIESLIDLKMDKNNIEAIFVDDCSTDESVNIIKHYEKDYDFIKLIQLPENTGSPSEPRNIGMREAQGKYITLLDADDWLDKEGFPQVIEKVNKDDADLGFGQSFKHKSKNVKYHARFTSYKEASHLKPQDISKIFRAVGPPGKVFKRSLVMDHHIEFEHMKYGEDKLFFFQLFGKVDDITMSTIPMYHVNRYDENKSLVQQTSMLDKANSNLEVLDRTCHMDMSSELKHMALARMVEVDFISRFLRTKTFIKSADKEKFYAVIEKVERKIKEQGIDINTLITNPVFKQIYTLYHHADESVFVNFTKDVVNDQWRYIIQDGIVFRDFVHQYDMIKPTVVDCYPVYEGTQMMGENKYEVIRVMKPDDINIQSVSLVEINNAANEYEVTYKYSDDRIYVPHEEFEKLNKDININFNVNYGESGRSLVYASYPSFNDVFKMKRQNFKVEFVHKKNENKAQQVTNRKSEYFKRITNPMMTLKKIKIYKDVSFKEEVGSLEAGTRVEASDIQYTSKGTPRLVLDDGSIITANKDFITLINTSGLNKYITEVPKKVKVVKACKLYDSRDFKDNTVRKLKKGDVLTIRDIIYTNNSTPRLVTQEGLFLTANKDFIKIIK | failed
8 | MAKNYYDITLALAGICQSARLVQQLAHQGHCDADALHVSLNSIIDMNPSSTLAVFGGSEANLRVGLETLLGVLNASSRQGLNAELTRYTLSLMVLERKLSSAKGALDTLGNRINGLQRQLEHFDLQSETLMSAMAAIYVDVISPLGPRIQVTGSPAVLQSPQVQAKVRATLLAGIRAAVLWHQVGGGRLQLMFSRNRLTTQAKQILAHLTPEL | not failed
9 | MAKQIIVTDSTSDLSHEYLKQHNIHVIPLSLTIDGKSYTDQVDISSSEYIDHIENDADVKTSQPPIGRFIETYEQLAQDDVEIISIHLSSGLSGTYNTAVQASHMVDGNITVIDSKSISFGLGYQIKQIVELISQGTSTEEIVKEMTQLRDNLQLFVVIGQLNQLIKGGRISKTKGLIGNIMKIKPIGTLRDGKLELVHNSRTQNSSVQYLKKEITDFVKDHKIKSIGIAHANVKDFVDKIIKSFTESFDFSQFDINVTTPVISTHTGQGAIGLVVLRDTLN | failed
10 | MAKRKKKEVFDWEDEDQEEIIWVSKSEIKRDAEDLKQLGEKIVNLTKANLAKIPLDESLLDAIELAQRLQKEARRRQLQYIGKLFRGIDVEPIREALDKIENKHNQQQAMLHKIEKVRDELVEKGDVALTDLLNDYPNGDRQQLRNLIRSAQKELEQNKPSKAYREIYQMLKVLMLED | failed
11 | MAKRVFIGATGQNCGKTTMSVSLMHLARQKYDRVGFIKPIGPKIEGYNGLTVDMDAILMARTFGLEEDLPLMNPVSLHKNFTRDFLSGKLDCNVLKTKILEAFEILDKKYDFLIIEGAGHGGVGSVIGLSNACVAHTLNAPVIIVTDSGIGSSIDAVHLNLALYEKEDADVRMLLVNKLRADKRESILSFLGKGFPGRPLKISGGFNYSPILANPTLSHIGKLLNLPVHGDPDGQSRIIHHIHLGAASAQRVVDALQESTLIVITSSRDELIVTLSSLYHIPAFREKIVGLVIAGHIPASEISQQILDDSNIPYIRVHDSTANVFTTLMEDVAKITAEDQEKLNWIRANAENEIDFEAIDALLLEHHHHHH | failed
12 | MAKSGSLSIRVVEGRALPAKDVSGSSDPYCLVKVDDEVVARTATIWRSLSPFWGEEYTVHLPLDFHHLAFYVLDEDTVGHDDIIGKISLSKEAITADPRGIDSWINLSRVDPDEEVQGEVCLAVKLLEDARGRCLRCHVRQARDLAPRDISGTSDPFARVFWGSRSLETSTIKKTRFPHWDEVLELREAPGTTSPLRVELWDWDMVGKNDFLGMVEFTPQTLQQKPPNGWFRLLPFPRAEDSGGSLGALRLKVRLTEDRVLPSQYYQPLMELLLESVQGPAEEDTTSPLALLEELASGDCRQDLATKLVKLFLGRGLAGPFLDYLTRREVARTNDPNTLFRSNSLASKSMEQFMKLVGMRYLHEVLRPVISRVFEEKKYMELDPSKMDLNRSRRISFKGTPTEEQVRETSLGLLTGYLGSVVDAIVSSAGRCPLALRLAFKQLQQCVEKRFPGMEHQVGWVLRGLMRIRLKAPCVQCSRCIDXRNRIWGHRRCLPHGELGLLSPLLQAVQSIGNLGQQLGQGKEQWLAPLHPFLLQSISRVRDFLDQLVDVDGDEEAGFPLTKLMECRGVTKEGRVGXGRWSTSXFPAFRRERQERPGGLCCSERSAAWSWRLRLTGRDIAGLTGQWHAVPGRPQVHSSIPLSCIRAVERVDEGAFQLPHVMQVVTQDGTGASHTTYLQCKNVNDLNQWLSALRKASAPNPGKLAACHPGAFRSGRWTCCLQAERSAALSFHLGVLCNLEHVTXFLCASVFSSGKWSSPLDPKAGGAALYLRNQFCLSLSTLRLKLLEDSSLDTAPDVDPGKDSSAVDGPCAEVLAQQREATTRLLQVLEDLEQAHEEFQKRG | failed
13 | MAKSVNALINEAIEAGKKRDYKTSILILENLAAEGLAEVSSPFYGEKKGNPEIYLYLSRAWAAVNNYGRSIAYGKAYIKRCSSDPSANSTDLPMGFFFLGRSYLAAGQYDRAVYCLEKSLKLNPHPLETRAMLGSAYLKWKKPRLARETFEEALKFAPSDAKLNAGYLNSLFVEGIYELRNGNADMARQMFSFAIKNGIDGVAPRLYLAHALKMEGYLPEALGQYEAACEFEPDDPALKWYPAMIKMQLGDTTAAAEDFAKLGIEIPDDGVSDRFFAMGVIKKHMERGDYSRAAVAARIFIKTFGSDAEIRLLAAEAQRSMGNTNTALGHYKCALEHEPENPYPHYGIMLALQEAYRWEELSAEILRAEASGVCDADDIYYYKIITAAHIDNPPEEVLPHLQALIQNGRSDSAIFNAMGCCYIKLNMPDLALNWYERALSINEKDEEAKIGIIASYENLQLNKEADEAYNSYLNEWGKNIYIRRDYVLFLEKCERWEDAGNQLEILMSQGKKVNFDPELALFRRKAGQYQKAAILYRKMLRAKPEERLLLHNLVFCLDKMGQTKVSLDLLKAAEKMFGIKTDSMLIKGILQMRLKKKEDAIKTFQYILEKEPKNKHAAEFLEKAYGK | failed
14 | MAKTLNSICFTTLLLVLLFISAEIPTAEANCDTYLGEVTVYYPCRERDCEAQCYEHYPHSCKGECEHHDHVVHHDNEEEHCHCYGR | failed
15 | MAKVCYFTGRKTVSGNNRSHAMNKTKRVVKPNLQKVTVLIDGKPKKVWASARALKSGKVERVLEHHHHHH | failed
16 | MAKYFDIDDILIEEEFVPVLFHKTANGVTIDPSAETNCVSLLIPSAKAEQGSKVELPFWLAHELHLRQAVTINLPPCFDQKTRLEVQADAAYVDLRSRCPYFYEFGCKIEPLVTDRTLGILLSTAFKIRYKEALTKVYTAAHITASKYLSFLTKEETNLYEAAHLSMTAFKKWRTGGPRFQRASILGRKRKDSN | failed
17 | MAKYKVGMVSLGCDKNRVDSEIMLGMVQNEYELTNNPKEADIIIVNTCGFIEKAKQESINTILDMAKYKTSHNCKLLIATGCLTQRYGDELLELMPEIDIMLGVNDYAKINEAIMNFINGNNEKVKATNYSDVSINEGLRLITTDKATAYLRIAEGCDNFCTYCIIPKIRGKFRSRALESIVEEAKKLAENGVKELILIAQDTTNYGIDIYGEKKLHLVLRELAKIEGIEWIRVLYCYPEAIYDELIKEISVNDKVCNYLDLPIQHISNNVLKRMGRKTTKEEIIGKINDLRKNVPNIVLRTSLIVGFPGESCEDFNELKDFIKTIKLDKVGVFTYSREEGTPAAIMEDQIDEEVKKAREEEIMLLQKEVSEEINKNKVGREYDVLIEKFNGEYYIGRSYEMAPDIDGCIYVKGNGAKKDQFCKVKIEKALEYDLVGVVCNESCKLEHHHHHH | failed
18 | MALAEDDGFYMGVGYQIGGAQQNIDNKGSTLRNNVINNFRQVGVGMAGGNGLLALATNTTMDALLGIGNQIVNTNTTVSNNNAELTQFKKILPQIEQRFETNKNAYSVQALQVYLSNVLYNLVNNSNNGSNNGVVPEYVGIIKVLYGSQNEFSLLATESVVLLNALTRVNLDSNSVFLKGLLAQMQLFNDTSSAKLGQIAENLKNGGAGSMLQKDVKTISDRIATYQENLKQLGGMLKNYDEPYLPQFGPGTSSQHGVINGFGIQVGYKQFFGNKRNIGLRYYAFFDYGFTQLGSLSSAVKANIFTYGAGTDFLWNIFRRVFSDQSLNVGVFGGIQIAGNTWDSSLRGQIENSFKEYPTPTNFQFLFNLGLRAHFASTMHRRFLSASQSIQHGMEFGVKIPAINQRYLRANGADVDYRRLYAFYINYTIGF | failed
